Experimental data as given in patent US20160053277A1, “Compositions Having Dicamba Decarboxylase Activity and Methods of Use” (PIONEER HI-BRED INTERNATIONAL, INC., priority 2013, published 2016).
Where a chain is given by its changes, count along the chain named.

B1: 120 (protein)
chain: MAIIDCHGHYTTTPKGVETYRNAQKAAVAKDPSFKYEKGQVVVSDDEIRESIENNQLKMQRERGTDLTIFSPRSTAGGHHIGNEYTSQFWTEHQNDLIRRVCDLFPKNFAPVAQLPQSPGVDPAKSVPEIVRTVEQMGFIGINLNPDPSGGYWKDTSLADRAFYPIYEKMVEYDIPAMIHPRNACNDCFHTTGSHALGADTTGFQQLIMSDVFKDFPSLKIIIPHGGGAVPYHWGRFRGLMQDQGYAPLEESALKNIYFDTCVYHQRGIDLLLDIVPTQNILFASEMIGAVRGIDAETGHNFDDTKRYIDNNTALNAEEKAMIFEGNARRVFSRLKTD
modifications: Dicamba decarboxylase variant clone: DC.12.002
B2: 122 (protein)
chain: B1 chain with T19D, Y36G, E286D, A296P
modifications: Dicamba decarboxylase variant clone: DC.12.103
B3: 118 (protein)
chain: MAKKPRIDMHSHFFPRISEQEAAKFDANHAPWLQVSAKGDTGSIMMGKNNFQPVYQALWDPAFRIEEMDAQGVDVQVTCATPVMFGYTWEANKAAQWAERMNDFALEFAAHNPQRIKVLAQVPLQDLDLACKEASRAVAAGHLGIQIGNHLGDKDLDDATLEAFLTHCANEDIPILVHGTDMMGGQRMKKWGLPWLVALAAEVQLAILSLILSGAFERIPKSLKICFSHGGGSFAFLLGLVDEAWRHVDIVREDCPRPPSEYVDRFFVDSVGNPGALELLVSVMGEDRVMLGSDYPHTTGEQKIGGLVLSSNLGESAKDKIISGNASKFFNINV
modifications: Dicamba decarboxylase variant clone: DC.5.033
B4: 119 (protein)
chain: B3 chain with T180W, P194Y, L199H, A200H, L237T, L240W, H297L
modifications: Dicamba decarboxylase variant clone:DC.5.034
B5: 121 (protein)
chain: MAIIDCHGHYTTTPKGVEDYRNAQKAAVAKDPSFKGEKGQVVVSDDEIRESIENNQLKMQRERGTDLTIFSPRWDAGGHHIGNEYTSQFWTEHQNDLIRRVCDLFPKNFAPVAQLPQSPGVDPAKSVPEIVRTVEQMGFIGINLNPDPSGGYWKDTSLADRAFYPIYEKMVEYDIPAMIHPRLACNACFHTGLSVGLGADTTGFQQLIMSDVFKDFPSLKIIIPHGGGAVPYHWGRFRGLMQDQGYAPLEESALKNIYFDTCVYHQRGIDLLLDIVPTQNILFASEMIGAVRGIDPETGHNFDDTKRYIDNNTALNAEEKAMIFEGNARRVFSRLKTD
modifications: Dicamba decarboxylase variant clone: DC.12.014

Assay: 14C assay with IPTG-induced recombinant E. coli cells: 14CO2 captured from [14C]-carboxyl-labeled dicamba
Settings: dicamba decarboxylation activity of the protein of the given SEQ ID NO; High / Low / No

Molecule | Enzymatic Detection level
B1 | High
B2 | High
B3 | High
B4 | High
B5 | High

Assay: Saturation mutagenesis of SEQ ID NO:109: dicamba decarboxylation activity of point mutants (carbon dioxide released)
Settings: decarboxylation activity (carbon dioxide released) of point mutant compared with unmutated backbone protein; backbone SEQ ID NO: 109

Molecule | Fold Activity
B1 | 1.3
B2 | 0.9
B3 | 1.4
B4 | 1.6
B5 | 1

Assay: Dicamba decarboxylation activity of computationally designed protein variants and their parents
Settings: statement in the description

Molecule | dicamba decarboxylase activity (native protein or designed variant)
B1 | have dicamba decarboxylase activity
B2 | have dicamba decarboxylase activity
B3 | have dicamba decarboxylase activity
B4 | have dicamba decarboxylase activity
B5 | have dicamba decarboxylase activity

Assay: Product analysis of reactions of purified His-tag protein with dicamba (14C assay, GC/MS, LC-MS/MS)
Type: biochemical
Settings: purified protein incubated with dicamba
Procedure: Alternatively, dicamba decarboxylase activity can be monitored by measuring decarboxylation products other than CO2 using product detection methods. The decarboxylation product of dicamba, 2,5-dichloro anisole or 2,5-DCA (FIG. 1C), is a volatile compound with a flash point of 21° C. To capture this volatile compound for detection, 140 ul of toluene solution is added on top of 1 ml reaction mixture to form a trapping layer in a 1.5 ml eppendorf tube. […] The reaction is kept still at room temperature overnight before being vortex mixed and centrifuged at 14,000 rpm for 15 minutes. The top toluene phase is carefully removed using a micropipette and transferred into a 12×32 mm polypropylene vial (Vial 11 mm) from MicroLiter Analytical Supplies, Inc. (catalog number 11-5300-100). The vial is sealed with Crimp seal (11 mm with FEP/Nat Rubber) from MicroLiter Analytical Supplies, Inc. (catalog number 11-0020A) using a E-Z Crimper™ 11 mm from Wheaton Inc. 1 ul of the toluene mixture is taken from the sealed vials and injected in splitless mode into a GC/MS system for sample analysis (Agilent GC/MS system with a 6890A GC, a 5973N MSD and a CTC CombiPAL auto-sampler or with a 7890A GC, a 5975C MSD and an Agilent GC Sampler 80 auto-sampler).

Molecule | enzymatic reaction products detected
B1 | 2,5-DCA was detected
B2 | 2,5-DCA was detected
B3 | 2,5-DCA was detected
B4 | 2,5-DCA was detected
B5 | 2,5-DCA was detected
